38 sequences from the supplement of paper PMC9233669 can be followed below.

One data set deals with biotinyl-Trp-oxazolone. Description: self-aminoacylation, catalytic enhancement (BWO) (fold over background); higher = more active; k-Seq, kA / k0A0; sequences stand for … in GGGAAUGGAUCCACAUCUACGAAUUC…UUCACUGCAGACUUGACGAAGCUG
The essentials:
(§1)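 Mutagenized RNA pools with a 21-nt variable region (0.43 μM) were reacted with each biotinyl-aminoacyl-oxazolone at 2–1250 μM for 90 minutes at room temperature, in 50 μL HEPES/NaCl/KCl/MgCl2/CaCl2 buffer containing 5% acetonitrile at pH 6.9–7.0. RNA captured on streptavidin was quantified by triplicate qPCR and by Illumina sequencing. The fraction reacted for each sequence was fit to a pseudo-first-order model with bootstrapping, and catalytic enhancement is the median kA divided by the uncatalyzed rate, taken as the low-activity peak of a bimodal Gaussian fit.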

Another data set concerns biotinyl-Met-oxazolone. The data set is described as follows: self-aminoacylation, catalytic enhancement (BMO) (fold over background); higher = more active; k-Seq, kA / k0A0; sequences stand for … in GGGAAUGGAUCCACAUCUACGAAUUC…UUCACUGCAGACUUGACGAAGCUG
An outline of the steps:
as §1

The next data set relates to biotinyl-Phe-oxazolone. Description: self-aminoacylation, catalytic enhancement (BFO) (fold over background); higher = more active; k-Seq, kA / k0A0; sequences stand for … in GGGAAUGGAUCCACAUCUACGAAUUC…UUCACUGCAGACUUGACGAAGCUG
An outline of the steps:
as §1

Another data set relates to biotinyl-Leu-oxazolone. Description: self-aminoacylation, catalytic enhancement (BLO) (fold over background); higher = more active; k-Seq, kA / k0A0; sequences stand for … in GGGAAUGGAUCCACAUCUACGAAUUC…UUCACUGCAGACUUGACGAAGCUG
An outline of the steps: as §1

Another data set has as its system biotinyl-Val-oxazolone. The data set is described as follows: self-aminoacylation, catalytic enhancement (BVO) (fold over background); higher = more active; k-Seq, kA / k0A0; sequences stand for … in GGGAAUGGAUCCACAUCUACGAAUUC…UUCACUGCAGACUUGACGAAGCUG
An outline of the steps: as §1

This sample holds only a part of the variants without activity.

For the sequence “AACUUUGCUAAUAGUAGCAAG [Fam3.1 aminoacylation ribozyme variant]”, the self-aminoacylation stood at 2.42 with biotinyl-Trp-oxazolone, 2.2 in the data set on biotinyl-Met-oxazolone and 2.06 in the data set with biotinyl-Phe-oxazolone.
With “AAGCUUGCUAUUAGUCGCAAG [Fam3.1 aminoacylation ribozyme variant]”, the self-aminoacylation with biotinyl-Leu-oxazolone amounted to 2.48; in the data set with biotinyl-Met-oxazolone it was 2.23; in the data set on biotinyl-Phe-oxazolone it was 2.62.
As to “AAGUCUGCUAAUAGUCGUAAG [Fam3.1 aminoacylation ribozyme variant]”, the values for the self-aminoacylation with biotinyl-Trp-oxazolone, in the data set with biotinyl-Met-oxazolone and in the data set on biotinyl-Phe-oxazolone were 9.94, 2.5 and 49.6, respectively.
The matching figures for “AAGUUCGCUAAUAGUCGCAAC [Fam3.1 aminoacylation ribozyme variant]”: 2.33, 2.32 and 2.12.
For “ACUCACCUAGGUCAUCGGGUC [Fam2.2 aminoacylation ribozyme variant]”, the results for the self-aminoacylation in the data set with biotinyl-Met-oxazolone and in the data set on biotinyl-Phe-oxazolone were 2.24 and 7.01, respectively.
“AGGGUUGCUAAUAGUCGCAAG [Fam3.1 aminoacylation ribozyme variant]”: the self-aminoacylation is 2.18 in the data set on biotinyl-Met-oxazolone and 4.28 in the data set on biotinyl-Phe-oxazolone.
For “AGUCACCUAGGUCAUCUGGUG [Fam2.2 aminoacylation ribozyme variant]”, the self-aminoacylation in the data set on biotinyl-Leu-oxazolone was 2.59; in the data set on biotinyl-Trp-oxazolone, 2.38; in the data set on biotinyl-Met-oxazolone, 2.31; with biotinyl-Phe-oxazolone, 15.2.
For the sequence “AUAACCCUGGUCAUCGAGUAA [Fam2.1 aminoacylation ribozyme variant]”, the self-aminoacylation in the data set with biotinyl-Leu-oxazolone came to 3.46; in the data set with biotinyl-Trp-oxazolone, 2.47; in the data set on biotinyl-Met-oxazolone, 3.64; with biotinyl-Phe-oxazolone it was 7.47.
Turning to “AUACACCUAGGUCAACGGGUG [Fam2.2 aminoacylation ribozyme variant]”, the self-aminoacylation was 2.79 in the data set on biotinyl-Leu-oxazolone, 2.02 with biotinyl-Trp-oxazolone, 2.09 with biotinyl-Met-oxazolone and 6.06 in the data set on biotinyl-Phe-oxazolone.
For the sequence “AUGACCCUGGUCAUCGAGGGA [Fam2.1 aminoacylation ribozyme variant]”, the figures for the self-aminoacylation in the data set on biotinyl-Leu-oxazolone, with biotinyl-Met-oxazolone and in the data set with biotinyl-Phe-oxazolone were 3.03, 3.65 and 2.82, respectively.
As for “AUUAACCUAGGUCAUCUGGUG [Fam2.2 aminoacylation ribozyme variant]”, the self-aminoacylation in the data set with biotinyl-Leu-oxazolone was determined as 3.34; in the data set with biotinyl-Trp-oxazolone, 2.7; in the data set with biotinyl-Met-oxazolone, 2.59; with biotinyl-Phe-oxazolone, 13.6.
Regarding “AUUACCCAGGCCAUCGAGUGA [Fam2.1 aminoacylation ribozyme variant]”, the self-aminoacylation in the data set on biotinyl-Leu-oxazolone is 2.69; in the data set on biotinyl-Met-oxazolone, 2.52; in the data set on biotinyl-Phe-oxazolone, 11.
Take “AUUACCCUGGUAAUCGUGUGA [Fam2.1 aminoacylation ribozyme variant]”: the self-aminoacylation turned out to be 3.58 in the data set on biotinyl-Leu-oxazolone, 4.1 in the data set on biotinyl-Trp-oxazolone, 3.48 in the data set with biotinyl-Met-oxazolone and 22.2 in the data set on biotinyl-Phe-oxazolone.
The matching figures for “AUUACCCUGGUCAUUGAGUGG [Fam2.1 aminoacylation ribozyme variant]”: 2.66, 3.09, 2.54 and 2.08.
The matching figures for “AUUACCCUGGUCCUCGUGUGA [Fam2.1 aminoacylation ribozyme variant]”: 2.88, 2.73, 2.89 and 14.
As for “AUUACCCUGGUUAUCGAGUGU [Fam2.1 aminoacylation ribozyme variant]”, the self-aminoacylation with biotinyl-Leu-oxazolone came out at 2.57; in the data set on biotinyl-Trp-oxazolone, 3.92; in the data set with biotinyl-Met-oxazolone, 2.66; in the data set on biotinyl-Phe-oxazolone it was 3.12.
The matching figures for “AUUACUCUGGUCAUCGUGUGA [Fam2.1 aminoacylation ribozyme variant]”: 2.81, 3.34, 2.45 and 12.5.
Consider “AUUCACCUAAGUCAUCGGGUU [Fam2.2 aminoacylation ribozyme variant]”, for which the self-aminoacylation with biotinyl-Leu-oxazolone stood at 2.55; in the data set with biotinyl-Met-oxazolone it was 2.63; in the data set on biotinyl-Phe-oxazolone, 10.7.
For the sequence “AUUCACCUAGAUCAGCGGGUG [Fam2.2 aminoacylation ribozyme variant]”, the self-aminoacylation in the data set with biotinyl-Leu-oxazolone worked out at 3.1; in the data set with biotinyl-Trp-oxazolone, 2.88; with biotinyl-Met-oxazolone it was 2.39; with biotinyl-Phe-oxazolone it was 11.7.
“AUUCACCUAGCUCAUCGGGGG [Fam2.2 aminoacylation ribozyme variant]”: in the data set with biotinyl-Met-oxazolone, the self-aminoacylation amounted to 2.42.
For the sequence “AUUCACCUAGGUCAGCGGUUG [Fam2.2 aminoacylation ribozyme variant]”, the self-aminoacylation in the data set on biotinyl-Met-oxazolone is 2.22; with biotinyl-Phe-oxazolone, 6.39.
“AUUCACCUAGGUCAGCGUGUG [Fam2.2 aminoacylation ribozyme variant]”: the values for the self-aminoacylation with biotinyl-Leu-oxazolone, in the data set on biotinyl-Met-oxazolone and in the data set on biotinyl-Phe-oxazolone were 2.77, 2.16 and 11, respectively.
The matching figures for “AUUCACCUAGGUCUUCAGGUG [Fam2.2 aminoacylation ribozyme variant]”: 2.02, 2.04 and 6.96.
For the sequence “AUUCAGCUAGGUCAUCUGGUG [Fam2.2 aminoacylation ribozyme variant]”, the self-aminoacylation with biotinyl-Leu-oxazolone came to 2.35; in the data set on biotinyl-Trp-oxazolone, 2.25; with biotinyl-Met-oxazolone it was 2.3; in the data set with biotinyl-Phe-oxazolone, 13.4.
The matching figures for “AUUUCCCUGGUCAUCGUGUGA [Fam2.1 aminoacylation ribozyme variant]”: 3.65, 4.8, 3.61 and 27.1.
With “CAACGCUUCAAGCAAUCGGUC [Fam1B.1 aminoacylation ribozyme variant]”, the results for the self-aminoacylation in the data set with biotinyl-Leu-oxazolone, in the data set on biotinyl-Trp-oxazolone and with biotinyl-Phe-oxazolone were 2.08, 33.7 and 58.6, respectively.
For the sequence “CCACACGUCAAGCAAUCGGGC [Fam1B.1 aminoacylation ribozyme variant]”, the values for the self-aminoacylation in the data set with biotinyl-Val-oxazolone and with biotinyl-Phe-oxazolone were 2.23 and 2.86, respectively.
As to “CCACUUCAAACAAUCGGUCGG [Fam1A.1 aminoacylation ribozyme variant]”, the self-aminoacylation in the data set with biotinyl-Leu-oxazolone came to 2.54; in the data set on biotinyl-Trp-oxazolone, 33.2; in the data set with biotinyl-Phe-oxazolone it was 99.5.
Regarding “CCACUUCAAACAAUCGGUCUC [Fam1A.1 aminoacylation ribozyme variant]”, the self-aminoacylation was determined as 2.13 with biotinyl-Leu-oxazolone, 42.2 in the data set with biotinyl-Trp-oxazolone, 2.08 in the data set with biotinyl-Met-oxazolone and 75.8 in the data set on biotinyl-Phe-oxazolone.
Consider “CCAGACUUCAAACAAUCGGUC [Fam1B.1 aminoacylation ribozyme variant]”, for which the self-aminoacylation came to 2.19 in the data set with biotinyl-Leu-oxazolone, 40.2 with biotinyl-Trp-oxazolone and 85.8 with biotinyl-Phe-oxazolone.
Consider “CCCCACUUCAAGUAAUCGGUC [Fam1B.1 aminoacylation ribozyme variant]”, for which the self-aminoacylation in the data set on biotinyl-Leu-oxazolone turned out to be 2.08; in the data set with biotinyl-Trp-oxazolone, 14.2; in the data set with biotinyl-Phe-oxazolone, 15.4.
The matching figures for “CCGCACUUCAAGCAAUCGGUC [Fam1B.1 aminoacylation ribozyme variant]”: 2.01, 36.5 and 61.6.
With “CGACUUCAAUCAAUCGGUCUG [Fam1A.1 aminoacylation ribozyme variant]”, the self-aminoacylation in the data set with biotinyl-Leu-oxazolone was found to be 2.21; with biotinyl-Trp-oxazolone it was 24.3; in the data set on biotinyl-Phe-oxazolone, 42.2.
The matching figures for “CGUCUUCAAACAAUCGGUCUG [Fam1A.1 aminoacylation ribozyme variant]”: 2.22, 33.5 and 79.
As for “GAGUUUGCUAAUAGUCGCAGG [Fam3.1 aminoacylation ribozyme variant]”, the self-aminoacylation was found to be 2.11 with biotinyl-Leu-oxazolone, 3.34 in the data set on biotinyl-Trp-oxazolone and 6.69 in the data set on biotinyl-Phe-oxazolone.
“GUACUUCAAACAAUCGGUCGG [Fam1A.1 aminoacylation ribozyme variant]”: the self-aminoacylation in the data set on biotinyl-Leu-oxazolone is 2.3; in the data set on biotinyl-Trp-oxazolone, 15.8; with biotinyl-Phe-oxazolone, 37.8.
“GUACUUCAAUCAAUCGGUCUG [Fam1A.1 aminoacylation ribozyme variant]”: the self-aminoacylation with biotinyl-Leu-oxazolone came out at 2.06; with biotinyl-Trp-oxazolone it was 19.4; in the data set with biotinyl-Phe-oxazolone, 21.9.
With “GUUCACCUAGGUCAACGGGUG [Fam2.2 aminoacylation ribozyme variant]”, the self-aminoacylation in the data set with biotinyl-Leu-oxazolone was 2.5; in the data set with biotinyl-Trp-oxazolone, 3.22; in the data set with biotinyl-Met-oxazolone, 2.11; in the data set on biotinyl-Phe-oxazolone, 17.5.
